Values of other authors, collected in article PMC7878404.

Biological target: Bex1 50-75 (UniProt Q9R224)
UniProt Q9R224, sequence (Q9R224 50-75): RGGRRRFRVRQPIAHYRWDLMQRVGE

## OMP (from UniProt P08523)
  Kd: 150 µM
